IntAct's records for PubMed 31515488

B1: Vacuolar protein sorting-associated protein 37B (Homo sapiens), Q9H9H4 (parent)
chain: MAGAGSEARFAGLSLVQLNELLEDEGQLTEMVQKMEETQNVQLNKEMTLASNRSLAEGNLLYQPQLDTLKARLTQKYQELQVLFEAYQIKKTKLDRQSSSASLETLLALLQAEGAKIEEDTENMAEKFLDGELPLDSFIDVYQSKRKLAHMRRVKIEKLQEMVLKGQRLPQALAPLPPRLPELAPTAPLPYPAPEASGPPAVAPRRIPPPPPPVPAGRLATPFTAAMSSGQAVPYPGLQCPPLPPRVGLPTQQGFSSQFVSPYPPPLPQRPPPRLPPHQPGFILQ
B2: Ligand of Numb protein X 2 (Homo sapiens), Q8N448 (parent)
chain: MGTTSDEMVSVEQTSSSSLNPLCFECGQQHWTRENHLYNYQNEVDDDLVCHICLQPLLQPLDTPCGHTFCYKCLRNFLQEKDFCPLDRKRLHFKLCKKSSILVHKLLDKLLVLCPFSSVCKDVMQRCDLEAHLKNRCPGASHRRVALERRKTSRTQAEIENENGPTLLDPAGTLSPEADCLGTGAVPVERHLTSASLSTWSEEPGLDNPAFEESAGADTTQQPLSLPEGEITTIEIHRSNPYIQLGISIVGGNETPLINIVIQEVYRDGVIARDGRLLAGDQILQVNNYNISNVSHNYARAVLSQPCNTLHLTVLRERRFGNRAHNHSDSNSPREEIFQVALHKRDSGEQLGIKLVRRTDEPGVFILDLLEGGLAAQDGRLSSNDRVLAINGHDLKYGTPELAAQIIQASGERVNLTIARPGKPQPGNTIREAGNHSSSSQHHTPPPYYSRPSSHKDLTQCVTCQEKHITVKKEPHESLGMTVAGGRGSKSGELPIFVTSVPPHGCLARDGRIKRGDVLLNINGIDLTNLSHSEAVAMLKASAASPAVALKALEVQIVEEATQNAEEQPSTFSENEYDASWSPSWVMWLGLPSTLHSCHDIVLRRSYLGSWGFSIVGGYEENHTNQPFFIKTIVLGTPAYYDGRLKCGDMIVAVNGLSTVGMSHSALVPMLKEQRNKVTLTVICWPGSLV
B3: Stabilizer of axonemal microtubules 1 (Homo sapiens), Q8IYX7 (parent)
chain: MKTKCICELCSCGRHHCPHLPTKIYDKTEKPCLLSEYTENYPFYHSYLPRESFKPRREYQKGPIPMEGLTTSRRDFGPHKVAPVKVHQYDQFVPSEENMDLLTTYKKDYNPYPVCRVDPIKPRDSKYPCSDKMECLPTYKADYLPWNQPRREPLRLEHKYQPASVRFDNRTTHQDDYPIKGLVKTISCKPLAMPKLCNIPLEDVTNYKMSYVAHPVEKRFVHEAEKFRPCEIPFESLTTQKQSYRGLMGEPAKSLKPLARPPGLDMPFCNTTEFRDKYQAWPMPRMFSKAPITYVPPEDRMDLLTTVQAHYTCPKGAPAQSCRPALQIKKCGRFEGSSTTKDDYKQWSSMRTEPVKPVPQLDLPTEPLDCLTTTRAHYVPHLPINTKSCKPHWSGPRGNVPVESQTTYTISFTPKEMGRCLASYPEPPGYTFEEVDALGHRIYKPVSQAGSQQSSHLSVDDSENPNQRELEVLA
B4: Isoform 1 of Cell division control protein 45 homolog (Homo sapiens), O75419-1 (parent)
chain: MFVSDFRKEFYEVVQSQRVLLFVASDVDALCACKILQALFQCDHVQYTLVPVSGWQELETAFLEHKEQFHYFILINCGANVDLLDILQPDEDTIFFVCDTHRPVNVVNVYNDTQIKLLIKQDDDLEVPAYEDIFRDEEEDEEHSGNDSDGSEPSEKRTRLEEEIVEQTMRRRQRREWEARRRDILFDYEQYEYHGTSSAMVMFELAWMLSKDLNDMLWWAIVGLTDQWVQDKITQMKYVTDVGVLQRHVSRHNHRNEDEENTLSVDCTRISFEYDLRLVLYQHWSLHDSLCNTSYTAARFKLWSVHGQKRLQEFLADMGLPLKQVKQKFQAMDISLKENLREMIEESANKFGMKDMRVQTFSIHFGFKHKFLASDVVFATMSLMESPEKDGSGTDHFIQALDSLSRSNLDKLYHGLELAKKQLRATQQTIASCLCTNLVISQGPFLYCSLMEGTPDVMLFSRPASLSLLSKHLLKSFVCSTKNRRCKLLPLVMAAPLSMEHGTVTVVGIPPETDSSDRKNFFGRAFEKAAESTSSRMLHNHFDLSVIELKAEDRSKFLDALISLLS
partner: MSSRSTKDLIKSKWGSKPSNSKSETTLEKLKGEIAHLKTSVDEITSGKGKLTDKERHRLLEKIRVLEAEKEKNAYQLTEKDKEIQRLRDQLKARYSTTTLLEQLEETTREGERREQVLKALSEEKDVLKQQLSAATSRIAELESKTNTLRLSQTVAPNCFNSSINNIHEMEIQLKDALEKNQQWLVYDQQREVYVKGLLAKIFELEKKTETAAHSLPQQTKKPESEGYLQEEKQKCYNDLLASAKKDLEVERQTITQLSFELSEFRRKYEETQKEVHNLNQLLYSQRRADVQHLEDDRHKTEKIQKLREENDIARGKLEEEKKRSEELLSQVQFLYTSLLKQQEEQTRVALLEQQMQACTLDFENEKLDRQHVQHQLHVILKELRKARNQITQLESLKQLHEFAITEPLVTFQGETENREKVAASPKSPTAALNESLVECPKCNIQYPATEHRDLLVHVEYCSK
B5: Sperm surface protein Sp17 (Homo sapiens), Q15506 (parent)
chain: MSIPFSNTHYRIPQGFGNLLEGLTREILREQPDNIPAFAAAYFESLLEKREKTNFDPAEWGSKVEDRFYNNHAFEEQEPPEKSDPKQEESQISGKEEETSVTILDSSEEDKEKEEVAAVKIQAAFRGHIAREEAKKMKTNSLQNEEKEENK
B6: Copper homeostasis protein cutC homolog (Homo sapiens), Q9NTM9 (parent)
chain: MKRQGASSERKRARIPSGKAGAANGFLMEVCVDSVESAVNAERGGADRIELCSGLSEGGTTPSMGVLQVVKQSVQIPVFVMIRPRGGDFLYSDREIEVMKADIRLAKLYGADGLVFGALTEDGHIDKELCMSLMAICRPLPVTFHRAFDMVHDPMAALETLLTLGFERVLTSGCDSSALEGLPLIKRLIEQAKGRIVVMPGGGITDRNLQRILEGSGATEFHCSARSTRDSGMKFRNSSVAMGASLSCSEYSLKVTDVTKVRTLNAIAKNILV

Variants of: B1
Conditions: with vps28_human VPS28, Q9UK41

effect of a mutation on the interaction | Variant
with no effect | M151I

Variants of: B2
Conditions: with lrc8e_human LRRC8E

effect of a mutation on the interaction | Variant
with no effect | S198P

Variants of: B2
Conditions: with atpb_human ATP5F1B

effect of a mutation on the interaction | Variant
with no effect | S198P

Variants of: B2
Conditions: with ptcd3_human PTCD3, Q96EY7

effect of a mutation on the interaction | Variant
with no effect | S198P

Variants of: B2
Conditions: with mk09_human MAPK9, P45984

Variant | effect of a mutation on the interaction
S141A | with no effect
V145I | with no effect

Next, values leading:

effect of a mutation on the interaction | Variant
with no effect | T183I
with no effect | Y266C

Variants of: B2
Conditions: with optn_human OPTN

Variant | effect of a mutation on the interaction
S141A | with no effect
V145I | with no effect

The remaining lines, values ahead:

effect of a mutation on the interaction | Variant
with no effect | T183I
disrupting interaction strength | Y266C

Variants of: B2
Conditions: with tbb5_human TUBB

effect of a mutation on the interaction | Variant
with no effect | T183I
with no effect | V145I

Variants of: B2
Conditions: with at2l2_human PHYKPL

effect of a mutation on the interaction | Variant
with no effect | T183I
with no effect | V145I

Variants of: B2
Conditions: with ip6k2_human IP6K2, Q9UHH9

effect of a mutation on the interaction | Variant
with no effect | T183I
with no effect | V145I

Variants of: B3
Conditions: with rbtn2_human LMO2, P25791

effect of a mutation on the interaction | Variant
with no effect | D118G
disrupting interaction strength | N464K

Variants of: B3
Conditions: with fhl3_human FHL3, Q13643

effect of a mutation on the interaction | Variant
with no effect | D118G
with no effect | N464K

Variants of: B4
Conditions: with cep55_human CEP55, Q53EZ4

effect of a mutation on the interaction | Variant
with no effect | G150E

Variants of: B5
Conditions: with aka7g_human AKAP7, Q9P0M2

effect of a mutation on the interaction | Variant
disrupting interaction strength | R126Q

Variants of: B6
Conditions: with lnx1_human LNX1, Q8TBB1

effect of a mutation on the interaction | Variant
disrupting interaction strength | P77L
